B1: Quail picornavirus QPV1 (nucleic acid)
DNA: TTTGCATCAGTTCGCCCCTCCCCTCACCATACCTTTTTCCCCTCTTTAGGACTGATACTTGGTTATGATGAGCAGAGGATTTCGCAAGTTATGCTTCTTGATAAAAAGTAATTCACGAATCATGGGATTATAGCCTGGAAGTGAACACTCATGTGGCAAGTGGGTTAGTAGCTCTCCATGTTCCCATGTGCAGTGGACTGACAACAGTGAGTTCGGGGTTGTGTAGTAAAGGGAAAGTATTACTTACCCGCACCTGCTATACGTGGTGTACGTAGGATACGAGTTAGTAGTGCTTAGCAACTTTAAACTGGTGCTGAAATATTGCAAGGTCACTGAAGTTGTGAACGCGAACGCTCCGCCACTGCCATGTATAGCGTGCAATGCATAAATGGTGCACTACATGATACGAGGGAATGGGAAACCCTCCATGGCCGAATGCAGGGTGACAGCCTGCCGGCGGATGCCTGTTGTTAGTATAATCCGTTGTTTGCCAC
B2: Picornavirales Tottori-HG1 (nucleic acid)
DNA: AGCCATGAACTAGTGTGCGATTCCCACAGTGTTGGTCGAAAGCCCCGCACTGTCTACTCGCATATTTGACTCCAGTCCTTCCGCAGCCAGCGGTTAGGTTCTGGTTAAAGTGCATTATGTGCACGGCGCCACGCAGAACTGCCAGAAATGGTAAGCTGCGCCCAACGCCAACGGTTTGTGTATCCCGTTAGTCACACGTTTACAGCTGTTCGTTAACAGTAGGGTTTTGTCGACCCGGACCCCTTAATGCGCGCGAATTCAACCGCGCCTAGTCGGCAATGGTATCATTTAATCCCATGCACTACGGGAGAAATTTGAGACCAAAGAATTCCTGAGGGCCACTGCTTGCTCTAAGTGCAATGCCTCGGGAGACTTCTGTCAGGAGCCTAGCGGCTTTCAACCGCGACAGCTAACTCCTGCGGGATGTTTGGTGTCCATACTTACTGGCGTCCTCACAACGCTAAGTGGATGTTGTCCACAGGTAGGCAAACACCGAGCCCCACATTCAGGAGACCTGTATGAACGATCCTATCAGCATTAGAGTTGGAATTGGGTGTGCTAACGTCCGCATAAGTGCACCCCGTGGTAACGCTGGGAAACTATCCAGCGCAACGTACTGTCCTCAATGTCTAGGGAAGGACCGCCCTAAGCGTACAACCGGGCCATGTGTCGAGC
B3: Porcine enterovirus 9 (nucleic acid, listed as Enterovirus sp.)
DNA: GAACCTTAGAAGTTTACACAAACAAAGACCAATAGGAGTCCAACACCCAGTTGGATTGCGGTCAAGCACTTCTGTTTCCCCGGACCTAGTAGTGATAGGCTGTACCCACGGCCGAAGATGAACCCGTCCGTTATCCGGCTACCTACTTCGGGAAGCCTAGTAACATTCTGAAGTCTCTGAGGCGTTTCGCTCAGCACGACCCCGGTGTAGATCGGGCTGATGGGTCTCCGCATACCCCACGGGCGACCGTGGCGGAGGCCGCGTTGGCGGCCCGCCTATGGCGAAAGCCATAGGACGCCTCTTAGATGACAGGGTGTGAAGAGCCTACTGAGCTGGGTAGTAGTCCTCCGGCCCCTGAATGCGGCTAATCCTAACCACGGAGCGTCCACCAGCAATCCAGCTGGCAGGGCGTCGTAACGGGCAACTCTGTGGCGGAACCGACTACTTTGGGTGTCCGTGTTTCCTTTTGATCCTATTTTGGCTGCTTATGGTGACAACGATAAGTTGTTATCATAAAGCTCTTGGGTTGGCCACCTGGAAAAAGTTATCAGTGTTTGATATTGTTCGGCTCTCACGCCTACCAATAAGACAAGCCCTATATTTACTTGTTGCATTTTACTCGTCAGAAGAAATCACAGAGTATCATTTGGATTTGTTACTCACATTAAGGACAAG
B4: Porcine reproductive and respiratory syndrome virus 2 (nucleic acid)
DNA: ATGACGTATAGGTGTTGGCTCTATGCCTTGGCATTTGTATTGTCAGGAGCTGTGACCATTGGCACAGCCCAAAACTTGCTGCACAGAAACACCCTTCTGTGATAGCCTCCTTCAGGGGAGCTTAGGGTTTGTCCCTAGCACCTTGCTTCCGGAGTTGCACTGCTTTACGGTCTCTCCACCCCTTTAACC
B5: Picornavirus HK21 (nucleic acid)
DNA: AAACGGGAGGATCGGCTTTGGCTTATCCTCTTAATAGTCTACAAAACTGGGCTGACTGGTGGGGGAGCTACTAGATCCGGGAGAGGACTAGTTACCCCGCGTAACTTCCCTTTTTGTCACTCCCTCCACCTACCCCTTCCCTGTCCCTTAGACTCTTAAGTAGGTGTGCAGGCCTGGCCCCCCGGAAATGGGCAAATCGGACGTTTGCGTGTAGGGTCGTTCTGAAAGGTGGGGCCCACTCCACCGTAGTAGGATCTTCCTGTTTCACGTTTAAACCTCTCCGGGCAGGTATCGCTAGACACTAGGCTGTATAGGATGGCACGCACTTAGGTTTCGCACCTTCCTAGTGCGCCAAGATCCCGCTTTTGAGCTCAAGTACATGGTTCTTTGTAAGATGTCTAACCAGAGGAGGTGGTGCTGAAATATTGCAAGCCACTCTGGCGAACGTCCACTGCATTGCCTGGAACAGGCTCTCTAGCGCCCTCCACTGGTAGCGCGGTGGTGGGTTAGTAGGATACCTATATGGACAGGGGATGCGGGAATACCCCTCACTAGCTAGTGACTGGTTGATCGACTGGCGGCGGATCCAGTGATACTTGCATAATCCGCAGACTTGGGAG
B6: Pigeon picornavirus B (nucleic acid)
DNA: TTTATTTAGCTGTTAAGTTTTATTTGTGCCGAGACCCCATAGTAGGATCTTGGTGTTCCACATTAAGCTCTCCCGACCACACATCCAAACGATAGGCGGTGTAAGGGCTCCCTGGCTAAGTGTTTACTCATTGCTAGGGAAGTGTTGCGACCCGTTACCAGTAGGAATACAGGAGGTCTTAGTTGCCTAACCAGATAAAGTGGTGCTGAAATATTGCAAGCTCAATGTCTGGCGAACGACGGACTACCGTTGAACTATTGTTAACGCCCGCGTGTGTAGGCAACACACGGGTTAGTAGGTCACTTACATTGACATCCGTGCCGGGAAAGCGGATCTGAGCTATCGATTGCCTGATAGGGTGCCGGCGGGCGCGGTACGTGTGGTATAGTCCGCTGTCTTGGGGTATGGCGTCTACTCGGTTTTGTTGTCGTTTTGGAATGTCCCATGTCGGAGATGTCGTTACCGGTGTTTGCTTTACTTGTGCACGAATAAGAAAACAGAGTTTGGAGTTTTGGAAGTTAATGGATAACATCAAGTTTCCATTGCGTTCCTCGTGCATTTTAGGCCAGAAAATCGACCACAAAATCGAGA
B7: Ludopivirus (nucleic acid, listed as Ludopivirus sp.)
DNA: TAGACCCCCACCTAGCCCTTTTCCCCGTCAGTGGGGGGCTTACTCACTGGGCATCTGTTAATCTGGCCTAACTAGATTGACACCACTCCCTTGGAACGTAACTCCACGCTAACTCACTGGCTCTACGCACAGACACACGGTCTTTCTGCTATCCCCGGGGAAGATACCAGATGGCGACCGGCTGTCCCAGCGGCCTAGTAGCTACTCGGGTTGAGTACCCACCACGGTTTTGACGCCTGCTAAAATTCAAGAGACAGAGGTAGGGGTGCTTAGTGTGTGGGGGAAGTTCCCACAAGCGAGGCAAAGCATTGCTCCCTCGCGTCACCGGGTGCAAGGTAAATTGGCTGGACTTCCGCTCTACCCTTGCTACTCGCCCTCTTCGGAGGGTTCGAAGTGACACTAGGTATACGCATGGTTGGGAAACCATGCCTGGCCTACTACTGGGTGATAGCCTGGCGGCGGGTCCGTCTCTTGGCTTATACCCGTTGATTTGGGAT

System: HEK293 cells
Assay type: cell-based, human
Conditions: luminescence from secreted Gluc in supernatant 24 hours after transfection of HEK293 cells; circular RNA encoding Gluc with the named IRES (UTR truncated to 675 nt)

Molecule | Expression
B1 | 6.55E+07
B2 | 9.54E+04
B3 | 3.20E+07
B4 | 1.29E+05
B5 | 4.09E+05
B6 | 1.24E+05
B7 | 1.05E+05

Source: patent US20230226096A1 (Orna Therapeutics, Inc., priority 2020, published 2023)
